# Reference: patent US20190264194A1
# Columns and labels:
# [1] = biological target: OmpA with T7⋅tag epitope inserted into loop 4 (Escherichia coli) (UniProt P0A910); test: flow cytometry of whole cells, biotinylated mAb then streptavidin-phycoerythrin
# [2] = biological target: OmpA with T7⋅tag epitope inserted into loop 1 (Escherichia coli) (UniProt P0A910); test: as above
substance,measurement,setting,value
anti-T7⋅tag monoclonal antibody,fold fluorescence above background cellular autofluorescence,[1],2 fold
same,fold fluorescence above background control cells,[2],300 fold
